Experimental findings from the supplement of paper PMC9170038 are described below.

The data set deals with MS2 coat protein. Put plainly: apparent KD of MS2 coat protein; higher = weaker reporter binding. To be noted: Eterna round: R107. The procedure:
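RNA-MaP round R107: designed RNA switches with theophylline, tryptophan, arginine or FMN aptamers are transcribed on-chip within common flanks. They are titrated with SNAP-549-labelled MS2 coat protein in RNA-MaP buffer (100 mM Tris pH 7.5, 80 mM KCl, 4 mM MgCl2), without ligand or with the indicated ligand. Median apparent KD per design.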

Setting [1] is: input ligand: theophylline 20 uM.
[2] abbreviates: input ligand: tryptophan 2.4 mM.
Setting [3] is: input ligand: theophylline 2 mM.

For “UAAAACAUGAGGAUCACCCAUGUAAUUGAUACCAGAGUGAUGAUCCUCCCUUGGCAGCAAAUAACGCAUUGGAAACAAUGCGAAA [Mat - Same State Theophlline A - Mod of Eli - D26]”, the “apparent KD of MS2 coat protein” value came out at 51.4 nM (input ligand: arginine 13.2 mM), 91.6 nM under setting [1] and 47.8 nM under setting [2].
“UGUAUGUGAUUUGAUACCAGACCAGCUGGUGGUACUUGAGGAACACCCAAGUAGGUUUGGGUCCCUUGGCAGCAAAUCGCAUACU [SS Theo B #24 Ms11]”: the “apparent KD of MS2 coat protein” value runs as follows: (input ligand: arginine 13.2 mM) 110 nM; under setting [1], 160 nM; under setting [3], 29.9 nM; under setting [2], 138 nM.
Take “UGGUACAUGGCGGCCGCCACUUCACGUAAAAUAAAAACUUGAGGAACACCCAAGUAAUAAGUUGGGAGGACCGGGUCAUGUACCU”: the “apparent KD of MS2 coat protein” value was 35.3 nM (input ligand: arginine 13.2 mM); 36.2 nM (input ligand: none); 41.7 nM under setting [1]; 39.1 nM under setting [3]; 26.1 nM under setting [2].
In the case of “AGCGGAACGGAAGGGUCCCAAAAUUGUGAUACCAGCCUUGAAUCCGGCCCUUGGCAGCACAUGAGGAUCACCCAUGUACUGCGAU [Laanor]”, the “apparent KD of MS2 coat protein” value by setting is: (input ligand: arginine 13.2 mM) 11.2 nM; under setting [1], 19.2 nM; under setting [2], 12.8 nM.
Consider “AGACGAGAAGAGGAUUACCCAUGUACAGAAGGAGCGUCGUUGACGACAGGUAGGUCGCUGAGAACAUGAGGAUCACCCAUGUUGA [Arg A Ex t1]”, for which the “apparent KD of MS2 coat protein” value runs as follows: (input ligand: arginine 13.2 mM) 29.9 nM; (input ligand: none) 42.9 nM; under setting [1], 53.9 nM; under setting [3], 39.8 nM; under setting [2], 36 nM.
Regarding “UAUCGUCAGACGGCCGCCACUAGAACAUGAGGAUCACCCAUGUACUAGUGGCAUACCUCAUGAACUAGGACCGGGUCUGACGAAU [(Trp1)-(Ms2)-(T)'-(M)'-(Trp2)_Design10]”, the “apparent KD of MS2 coat protein” value by setting is: (input ligand: arginine 13.2 mM) 10.2 nM; under setting [1], 11.8 nM; under setting [3], 10.2 nM.
For the sequence “AGACAUGAGGAUCACCCAUGUAGCACGGAUACCAGAUCCAGAUUUAUCCCUUGGCAGCUGUGGUACAGCGUUGCAACGCUCCUAG [Exclusion - Theophylline A (Freestyle 16)]”, the “apparent KD of MS2 coat protein” value runs as follows: (input ligand: arginine 13.2 mM) 17.6 nM; under setting [1], 23.2 nM; under setting [2], 17.1 nM.
On to “CUUAUAUAUAGAAGGAGCGACAUGAGGAUCACCCAUGUCUACCACGUCGAAAGACGCUCAUGUCAGGUAGGUCGCUAUAUAUAAG [Astros-Eli-mod3]”, for which the “apparent KD of MS2 coat protein” value is, setting by setting: (input ligand: arginine 13.2 mM) 42.5 nM; (input ligand: none) 152 nM; under setting [1], 138 nM; under setting [3], 172 nM; under setting [2], 120 nM.
As for “ACAUGAGGAUCACCCAUGUAUGACUAUCCUCGAGGACCGGUACGGCCGCCACUCGAACGAGUGGCUCGCGAGUGCGCACUCGCGA [5' end]”, the “apparent KD of MS2 coat protein” value by setting is: (input ligand: arginine 13.2 mM) 11.7 nM; (input ligand: none) 13.3 nM; under setting [1], 16.6 nM; under setting [3], 11.3 nM; under setting [2], 10.3 nM.
Regarding “UAUCCACAUGAGGAUCACCCAUGUAGGGAAGGAGCGGUGAUUUCACCAGGUAGGUCGCCUUGCUCAGGGUUGCCGGUGGAAUCGU [Exclusion - Arginine A (Freestyle 34)]”, the “apparent KD of MS2 coat protein” value by setting is: (input ligand: arginine 13.2 mM) 24.9 nM; (input ligand: none) 12.7 nM; under setting [1], 19.7 nM; under setting [3], 13.3 nM; under setting [2], 9.73 nM.
Turning to “ACAUUUAACUGAAGGAGCGUGAAUAACAUGAGGAUCACCCAUGUAACUUAGAUGCUUAUUUCACAGGUAGGUCGCAGACUAAUGA [JR_ExcArginiB_Sub010]”, the “apparent KD of MS2 coat protein” value by setting is: (input ligand: arginine 13.2 mM) 10.4 nM; (input ligand: none) 10.3 nM; under setting [1], 13.7 nM; under setting [3], 10.3 nM; under setting [2], 10.9 nM.
As to “UGUAUGUGAUUUGAUACCAGACCAGCUGGUGUUACAAGAGGAUCACCCUUGUAGGUUUGGGUCCCUUGGCAGCAAAUCGCAUACU [SS Theo B #24 Ms4]”, the “apparent KD of MS2 coat protein” value by setting is: (input ligand: arginine 13.2 mM) 94.2 nM; (input ligand: none) 136 nM; under setting [1], 135 nM; under setting [3], 17.5 nM; under setting [2], 190 nM.
For the sequence “UCUGUUUGCUUUGUUUGUUUCUUCUUUGAGCGAGGACCGGUACGGCCGCCACUCGGGUUACAUGAGGAUCACCCAUGUGGUUUCU [Interesting]”, the “apparent KD of MS2 coat protein” value is, setting by setting: (input ligand: arginine 13.2 mM) 72.3 nM; under setting [1], 163 nM; under setting [3], 149 nM.
In the case of “CACUUCAUGUGAGAUACCAGUGCCUUACAUGAGGAUCACCCAUGUCGUAAUGUGGAGAAGCACCCUUGGCAGCUCGCUUCGAGUG [Theo B SS t6]”, the “apparent KD of MS2 coat protein” value by setting is: (input ligand: arginine 13.2 mM) 57.2 nM; under setting [1], 91.6 nM; under setting [2], 87.6 nM.
Consider “GCAAUACAUGAGGAUCACCCAUGUGCAGAUACCAGAGGUGCGUGCCUCCCUUGGCAGCUGCGACGCUCUGGAAGCUUGUGUGUCU [Exclusion Theophylline A GF27]”, for which the “apparent KD of MS2 coat protein” value is 18.4 nM (input ligand: arginine 13.2 mM), 26.2 nM under setting [1] and 21.2 nM under setting [2].
Turning to “CCCAGUCAUAACAAAGCAAAUAUACUCGAAGGAGCGUCAUAGUAGGCAGGUAGGUCGCGAGACAUGAGGAUCACCCAUGUAGAGA [zrzmullin]”, the “apparent KD of MS2 coat protein” value by setting is: (input ligand: arginine 13.2 mM) 20.1 nM; (input ligand: none) 31.8 nM; under setting [1], 33.2 nM; under setting [3], 39.2 nM; under setting [2], 35.1 nM.
Turning to “GGGUGGUAGGCGGCCGCCACUGAUUUUCAUUCCUGGAUGACAUGAGGAUCACCCAUGUUUACGGGCAGGACCGGGCCUGCUGUGG [aaaW]”, the “apparent KD of MS2 coat protein” value by setting is: (input ligand: arginine 13.2 mM) 34.8 nM; under setting [1], 68.4 nM; under setting [3], 66.6 nM.
